Assay [1] concerns the target integrin αvβ3 (Homo sapiens, UniProt P05106+P06756). In words: Human FP direct binding assay. The following applies: Table 3; fluorescently modified peptides; Integrin aVb3. The protocol:
(§1) Affinity of selected fluorescently modified peptides of the invention for integrin αvβ3 (Kd) (and αvβ5 to test for selectivity) was determined using a human direct binding assay analogous to that described in Schottelius et al. (2009) Acc. Chem. Res. 42, 969-980.

Assay [2] addresses T1, integrin αvβ3 (human, UniProt P06756 31-992; P05106 27-718).
T1 construct: also called Integrin aVb3
As to the kind of experiment: Human FP Direct binding. The protocol: as §1

Starred links: 1 amine or outer side, 2 acyl side, 3 side chain; linkers in the order of their positions; H or OH if unused. Positions of bridges follow the written chain, without caps; N, C: chain ends. Non-standard residues stand in square brackets, D forms with d. No end group written: not given here. *: point of attachment. FITC = O=C1OC2(c3ccc(O)cc3Oc3cc(O)ccc32)c2ccc(NC(=S)*)cc21; TATA = O=C(CC[*:1])N1CN(C(=O)CC[*:2])CN(C(=O)CC[*:3])C1; Ahx = NCCCCCC(=O)O; Fl = fluorescein; Sar = CNCC(=O)O

T1 sequence (P06756 31-992, chain 1 of 2): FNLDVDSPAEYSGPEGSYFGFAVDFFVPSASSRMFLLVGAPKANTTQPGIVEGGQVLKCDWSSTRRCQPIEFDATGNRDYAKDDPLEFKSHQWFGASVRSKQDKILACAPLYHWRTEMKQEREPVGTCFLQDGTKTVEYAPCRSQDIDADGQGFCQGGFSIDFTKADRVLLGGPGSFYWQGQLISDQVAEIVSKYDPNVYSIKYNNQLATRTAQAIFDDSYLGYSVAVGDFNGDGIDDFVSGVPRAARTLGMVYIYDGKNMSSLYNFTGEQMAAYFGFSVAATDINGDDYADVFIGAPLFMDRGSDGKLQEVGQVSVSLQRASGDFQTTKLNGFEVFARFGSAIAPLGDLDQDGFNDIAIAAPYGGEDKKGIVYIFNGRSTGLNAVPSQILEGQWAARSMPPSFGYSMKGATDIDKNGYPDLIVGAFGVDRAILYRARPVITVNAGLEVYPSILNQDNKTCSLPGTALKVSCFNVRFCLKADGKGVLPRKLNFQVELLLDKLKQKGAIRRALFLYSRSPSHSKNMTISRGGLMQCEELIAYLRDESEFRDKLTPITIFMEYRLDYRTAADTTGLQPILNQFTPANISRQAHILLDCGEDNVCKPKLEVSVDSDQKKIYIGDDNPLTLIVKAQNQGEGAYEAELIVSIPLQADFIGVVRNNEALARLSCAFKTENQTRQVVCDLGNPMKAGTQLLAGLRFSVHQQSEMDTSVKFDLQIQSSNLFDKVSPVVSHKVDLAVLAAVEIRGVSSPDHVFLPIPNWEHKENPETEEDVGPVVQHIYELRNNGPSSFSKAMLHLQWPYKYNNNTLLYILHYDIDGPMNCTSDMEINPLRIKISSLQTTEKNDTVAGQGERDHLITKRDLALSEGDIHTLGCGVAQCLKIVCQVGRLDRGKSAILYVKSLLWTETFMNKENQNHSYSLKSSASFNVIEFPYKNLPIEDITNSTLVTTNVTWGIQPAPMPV
T1 sequence (P05106 27-718, chain 2 of 2): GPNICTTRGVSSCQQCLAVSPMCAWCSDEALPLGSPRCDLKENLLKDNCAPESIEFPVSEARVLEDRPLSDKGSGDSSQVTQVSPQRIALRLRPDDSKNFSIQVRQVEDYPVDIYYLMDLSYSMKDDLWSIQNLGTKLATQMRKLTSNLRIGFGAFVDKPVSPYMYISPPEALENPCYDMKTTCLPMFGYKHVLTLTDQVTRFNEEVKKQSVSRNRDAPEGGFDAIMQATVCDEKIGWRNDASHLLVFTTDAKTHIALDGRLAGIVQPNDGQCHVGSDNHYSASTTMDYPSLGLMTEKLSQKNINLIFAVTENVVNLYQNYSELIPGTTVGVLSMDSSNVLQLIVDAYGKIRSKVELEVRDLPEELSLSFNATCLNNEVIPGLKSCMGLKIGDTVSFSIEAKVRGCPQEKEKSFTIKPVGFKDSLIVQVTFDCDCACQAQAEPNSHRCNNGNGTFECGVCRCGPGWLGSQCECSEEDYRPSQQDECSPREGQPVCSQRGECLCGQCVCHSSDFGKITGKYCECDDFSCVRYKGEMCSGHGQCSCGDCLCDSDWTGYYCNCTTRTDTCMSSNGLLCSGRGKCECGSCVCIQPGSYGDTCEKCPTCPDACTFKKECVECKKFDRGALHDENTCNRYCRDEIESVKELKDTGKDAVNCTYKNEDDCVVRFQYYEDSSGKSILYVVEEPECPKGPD
integrin αvβ3 (Homo sapiens, UniProt P05106+P06756), sequence (P06756 31-889 limits assumed): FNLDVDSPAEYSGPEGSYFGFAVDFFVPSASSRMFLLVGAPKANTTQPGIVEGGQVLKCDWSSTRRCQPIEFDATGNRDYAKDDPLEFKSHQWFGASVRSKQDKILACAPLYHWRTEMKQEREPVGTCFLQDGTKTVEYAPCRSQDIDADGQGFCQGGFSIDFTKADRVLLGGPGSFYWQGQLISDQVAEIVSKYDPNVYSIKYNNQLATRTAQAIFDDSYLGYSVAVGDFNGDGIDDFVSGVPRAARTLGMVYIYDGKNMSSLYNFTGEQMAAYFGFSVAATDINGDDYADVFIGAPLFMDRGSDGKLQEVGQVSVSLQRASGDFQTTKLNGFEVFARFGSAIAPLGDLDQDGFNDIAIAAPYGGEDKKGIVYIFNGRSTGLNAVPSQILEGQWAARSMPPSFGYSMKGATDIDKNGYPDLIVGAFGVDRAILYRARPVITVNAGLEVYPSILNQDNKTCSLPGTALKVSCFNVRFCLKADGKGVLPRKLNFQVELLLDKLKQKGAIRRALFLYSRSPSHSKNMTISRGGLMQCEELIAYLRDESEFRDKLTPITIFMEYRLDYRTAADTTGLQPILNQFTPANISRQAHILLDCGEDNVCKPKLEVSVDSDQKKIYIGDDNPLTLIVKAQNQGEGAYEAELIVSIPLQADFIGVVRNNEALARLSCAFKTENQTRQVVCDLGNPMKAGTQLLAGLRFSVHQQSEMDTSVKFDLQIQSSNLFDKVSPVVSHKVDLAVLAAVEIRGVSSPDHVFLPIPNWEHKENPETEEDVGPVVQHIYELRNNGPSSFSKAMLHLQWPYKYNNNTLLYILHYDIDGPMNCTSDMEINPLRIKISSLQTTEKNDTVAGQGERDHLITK
integrin αvβ3 (Homo sapiens, UniProt P05106+P06756), sequence (P06756 891-1048 partner limits assumed): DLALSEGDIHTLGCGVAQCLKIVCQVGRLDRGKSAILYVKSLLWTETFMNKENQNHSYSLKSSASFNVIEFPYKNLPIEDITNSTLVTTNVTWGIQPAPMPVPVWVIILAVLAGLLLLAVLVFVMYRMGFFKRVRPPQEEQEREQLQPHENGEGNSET
integrin αvβ3 (Homo sapiens, UniProt P05106+P06756), sequence (P05106 27-788): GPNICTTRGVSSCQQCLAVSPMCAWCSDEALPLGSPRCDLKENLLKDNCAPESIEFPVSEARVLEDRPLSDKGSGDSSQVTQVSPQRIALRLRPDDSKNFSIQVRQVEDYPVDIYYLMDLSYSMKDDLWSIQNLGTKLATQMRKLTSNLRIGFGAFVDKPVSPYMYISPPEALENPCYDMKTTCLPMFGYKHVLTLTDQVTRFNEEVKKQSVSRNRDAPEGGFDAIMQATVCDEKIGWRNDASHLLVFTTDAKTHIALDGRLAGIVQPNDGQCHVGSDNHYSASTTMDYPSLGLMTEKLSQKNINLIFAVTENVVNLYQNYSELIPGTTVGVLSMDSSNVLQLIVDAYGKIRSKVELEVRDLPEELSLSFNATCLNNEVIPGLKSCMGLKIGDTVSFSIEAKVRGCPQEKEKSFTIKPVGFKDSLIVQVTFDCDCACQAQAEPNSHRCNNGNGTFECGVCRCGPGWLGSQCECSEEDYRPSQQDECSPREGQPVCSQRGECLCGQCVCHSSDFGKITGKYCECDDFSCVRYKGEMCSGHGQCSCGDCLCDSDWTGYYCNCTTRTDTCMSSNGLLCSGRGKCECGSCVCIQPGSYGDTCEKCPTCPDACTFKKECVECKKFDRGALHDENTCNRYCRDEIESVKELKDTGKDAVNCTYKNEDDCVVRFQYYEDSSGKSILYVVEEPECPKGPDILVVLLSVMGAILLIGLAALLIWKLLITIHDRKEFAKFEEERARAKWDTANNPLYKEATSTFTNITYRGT

Molecule {FITC-Ahx}-GRGSSP [BCY7766] had a Kd at integrin αvβ3 [1] of 1.15 nM.
Turning to Ac-CPHIGRTDCPPCA[Sar][Sar][Sar][Sar][Sar][Sar]K(Fl) (linker 1-9-12 via TATA) [BCY7508], the Kd in the assay with integrin αvβ3 [2] came to 0.05 nM.
Molecule {FITC-Ahx}-GRGSSP (also called FITC-Ahx-GRGSSP) [BCY7766] returned a Kd with integrin αvβ3 [2] of 1.15 nM.

These data come from patent publication US20220064221A1, “BICYCLIC PEPTIDE LIGANDS SPECIFIC FOR INTEGRIN ALPHA-V-BETA-3” (BicycleTx Limited, priority 2019, published 2022).
